The text below walks through data of patent US20240228562A1, “NOVEL LIPOCALIN MUTEINS SPECIFIC FOR CONNECTIVE TISSUE GROWTH FACTOR (CTGF)” (PIERIS PHARMACEUTICALS GMBH, priority 2021, published 2024).

Positions count from the first letter of the chain named.

A short description of data set [1]: Thermal stability assessment by nanoDSC. The data set is classed as physicochemical. The note with it: 1 mg/mL in PBS, scan 25-100° C. at 1° C./min. The procedure, abridged:
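CTGF-specific lipocalin muteins at 1 mg/mL in PBS scanned from 25 to 100° C at 1° C/min by capillary nano-DSC. Where several transitions occur, the Tm of the major unfolding event is reported, along with onset temperature. Some muteins were expressed in E. coli, others in CHO cells.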

Data set [2] has as its target T1, human CTGF (Homo sapiens, UniProt P29279).
T1 construct: purchased Creative Biomart
Put plainly: SPR binding kinetics and affinity, human CTGF. The conditions noted are these: 25° C., 1:1 binding model. The procedure, abridged:
(§1)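 Biacore SPR at 25 °C; CTGF either Fc-captured via anti-human IgG (HBS-EP+) or amine-coupled to CM5 (300–1100 RU). Muteins injected 180 s contact, 900–3600 s dissociation, 30 μL/min.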
On the technique in general: In SPR one partner is held on a chip, and binding of the other changes the refractive index at the surface.

For data set [3], the target named is T2, human CTGF (Homo sapiens, UniProt P29279, H83D).
T2 construct: purchased Creative Biomart
T2 sequence (P29279 with tags, fused parts or gaps H83D): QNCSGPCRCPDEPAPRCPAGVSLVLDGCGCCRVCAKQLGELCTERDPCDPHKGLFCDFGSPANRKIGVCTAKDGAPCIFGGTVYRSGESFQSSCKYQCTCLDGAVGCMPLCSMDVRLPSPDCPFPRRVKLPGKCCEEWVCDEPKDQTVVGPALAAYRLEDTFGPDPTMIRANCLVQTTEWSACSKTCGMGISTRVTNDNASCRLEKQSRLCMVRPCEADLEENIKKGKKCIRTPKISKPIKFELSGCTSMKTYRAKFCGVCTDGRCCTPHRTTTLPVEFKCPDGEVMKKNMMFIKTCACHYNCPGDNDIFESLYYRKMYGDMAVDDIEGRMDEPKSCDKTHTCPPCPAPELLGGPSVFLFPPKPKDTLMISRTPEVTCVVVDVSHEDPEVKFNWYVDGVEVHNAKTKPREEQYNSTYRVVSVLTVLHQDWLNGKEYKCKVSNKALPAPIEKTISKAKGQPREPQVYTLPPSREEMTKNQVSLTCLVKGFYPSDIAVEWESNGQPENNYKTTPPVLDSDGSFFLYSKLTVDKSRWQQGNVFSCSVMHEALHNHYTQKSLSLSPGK
Put plainly: SPR binding kinetics and affinity, human CTGF. The note with it: 25° C., 1:1 binding model. In a few lines:
as §1

Another data set concerns cynomolgus CTGF. The data set can be described thus: SPR binding kinetics and affinity, cynomolgus CTGF. The conditions noted are these: 25° C., 1:1 binding model. How it is done: (§2) Surface plasmon resonance (SPR) was used to measure binding kinetics and affinity of the representative lipocalin muteins disclosed herein.
cynomolgus CTGF, sequence (as listed by the source): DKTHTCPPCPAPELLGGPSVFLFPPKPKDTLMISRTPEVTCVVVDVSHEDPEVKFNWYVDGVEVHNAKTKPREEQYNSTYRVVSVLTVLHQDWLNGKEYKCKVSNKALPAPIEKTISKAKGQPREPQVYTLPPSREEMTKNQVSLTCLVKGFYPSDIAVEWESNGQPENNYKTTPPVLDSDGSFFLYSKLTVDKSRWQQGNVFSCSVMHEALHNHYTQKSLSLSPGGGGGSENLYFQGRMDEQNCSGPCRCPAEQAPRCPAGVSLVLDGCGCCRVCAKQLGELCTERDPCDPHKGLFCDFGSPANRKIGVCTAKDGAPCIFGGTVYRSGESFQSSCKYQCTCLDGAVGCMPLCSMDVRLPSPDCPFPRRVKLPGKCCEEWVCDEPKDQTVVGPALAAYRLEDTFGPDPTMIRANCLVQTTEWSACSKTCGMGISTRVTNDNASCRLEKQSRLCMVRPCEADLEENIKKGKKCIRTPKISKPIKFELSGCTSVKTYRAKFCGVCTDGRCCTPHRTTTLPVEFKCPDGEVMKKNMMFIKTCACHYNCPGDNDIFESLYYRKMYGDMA
(§3) The binding of exemplary lipocalin muteins to human (Creative Biomart), cynomolgus, rat (R&D Systems) and mouse CTGF (Abbexa) was determined by SPR using a Biacore instrument (Cytiva, formerly GE Healthcare). Some targets were fused to a human IgG1 Fc tag, and captured via the anti-human IgG antibody kit, others were directly immobilized.
(§4) For some measurements, human CTGF with a human IgG1 Fc Tag or rat or murine CTGF without a tag were directly immobilized to a CM5 Chip. The carboxyl groups on the chip were activated using 1-ethyl-3-(3-dimethylaminopropyl)-carbodiimide (EDC) and N-hydroxysuccinimide (NHS). Subsequently, the targets at a concentration of 3-5 μg/mL in 10 mM sodium acetate (pH) 4.5 were applied at a flow rate of 10 μL/min until an immobilization level of 300-1100 resonance units was achieved. Residual non-reacted NHS-esters were blocked by passing a solution of 1 M ethanolamine across the surface. The reference channel was activated/deactivated. For the capture setting, targets with an IgG Fc Tag at 0.25-2.5 μg/mL in HBS-EP+ buffer were captured by the anti-human IgG-Fc antibody at the chip surface for 180 s at a flow rate of 10 μL/min.
(§5) The binding assay was carried out with a contact time of 180 s, a dissociation time of 900-3600 s and a flow rate of 30 μL/min. All measurements were performed at 25° C. […] For the directly immobilized targets, the same regeneration conditions were used. Prior to the protein measurements, three startup cycles were performed for conditioning purposes. Data were evaluated with Biacore Evaluation software. Double referencing was used and the 1:1 binding model was used to fit the raw data.
(§6) The values determined for kon, koff and the resulting equilibrium dissociation constant (KD) for exemplary lipocalin muteins are summarized in Table 4.

For a further data set, the target named is T3, Murine CTGF (Mus musculus, UniProt P29268).
T3 construct: purchased Abbexa
T3 sequence (P29268 26-348): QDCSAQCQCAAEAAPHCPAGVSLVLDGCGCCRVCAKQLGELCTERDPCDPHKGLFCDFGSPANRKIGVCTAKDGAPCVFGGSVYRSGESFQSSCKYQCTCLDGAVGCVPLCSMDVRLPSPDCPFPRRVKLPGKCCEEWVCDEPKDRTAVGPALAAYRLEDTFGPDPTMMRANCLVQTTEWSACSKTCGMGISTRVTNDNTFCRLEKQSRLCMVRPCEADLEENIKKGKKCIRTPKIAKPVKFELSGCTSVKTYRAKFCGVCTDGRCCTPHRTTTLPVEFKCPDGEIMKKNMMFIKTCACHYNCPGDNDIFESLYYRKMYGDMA
The data set can be described thus: SPR binding kinetics and affinity, murine CTGF. The note with it: 25° C., 1:1 binding model. The procedure, abridged:
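Targets either amine-coupled to CM5 chip (300–1100 RU; Fc-tagged human, untagged rat/murine) or Fc-captured via anti-human IgG; muteins injected 180 s contact, 900–3600 s dissociation, 30 μL/min, 25° C. Double-referenced sensorgrams fit to 1:1 model giving kon, koff and KD.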

A further data set concerns the target T4, Rat CTGF (Rattus norvegicus, UniProt Q9R1E9).
T4 construct: purchased R&D Systems
T4 sequence (Q9R1E9 25-347): T3 sequence (P29268 26-348) with H16R, A148V
The data set can be described thus: SPR binding kinetics and affinity, rat CTGF. The conditions noted are these: 25° C., 1:1 binding model. How it is done:
as §2, §3, §4, §5, §6

Data set [4] concerns bleomycin-induced lung fibrosis. The data set can be described thus: Bleomycin mouse model of lung fibrosis. The data set is classed as in vivo. The note with it: day 14 after bleomycin. Here is the method:
The anti-fibrotic activity of lipocalin muteins upon local delivery to the lung was evaluated in vivo using a mouse model of bleomycin-induced lung fibrosis. Bleomycin is a DNA damaging agent, also used in cancer therapy, which induces a severe damage of the lung epithelium upon delivery to the lungs of rodents. The injury causes a strong inflammatory response in the lungs which in turn triggers fibrotic response. The peak of fibrotic remodeling, usually observed between day 14 and 21 after bleomycin challenge, is characterized by an excessive deposition of extracellular matrix and destruction of alveolar lung structures. Here, approximately 9 weeks old, male C57BL/6N mice were challenged with bleomycin at a dose of 1 mg/kg or saline as a control via the intranasal route. Animals were treated daily with lipocalin muteins at a dose of 5 mg/kg or PBS as a vehicle control via local delivery to the lungs from day 0 to day 13 after bleomycin challenge. […] Animals were sacrificed at day 14 after bleomycin challenge and level of lung fibrosis was analyzed in formalin fixed, paraffin embedded lung tissues by histopathological evaluation using the Ashcroft score (Matsuse modification) and quantitative digital analysis of IHC detected Collagen1a1 protein deposition.
For determination of the Ashcroft score lung tissue slides were stained according to the Crossman's Trichrome method (Gray, Peter (1954) The Microtomist's Formulary and Guide. Blakiston, New York, 1954). The whole pulmonary area subjected for histopathological analysis was evaluated at ten low magnification fields and total score for each animal was calculated as a mean (Ashcroft et al., Journal of clinical pathology 41.4 (1988): 467-470; Matsuse, T., et al. European Respiratory Journal 13.1 (1999): 71-77.). […]
Collagen1a1 (Col1a1) deposition was analyzed by immunohistochemistry as a second measure for fibrotic lung remodeling. […] Stained tissue slides were evaluated for Col1a1 deposition by digital image analysis using the morphometry protocol (CaloPix software, TRIBVN). […]

Setting [5] is: mutein 5 mg/kg daily to lung, antibody 10 mg/kg every other day intravenous.

T1 sequence (P29279 with tags, fused parts or gaps H83D): as the sequence (P29279 with tags, fused parts or gaps H83D) above

B1: SEQ ID NO: 24: optimized CTGF-binding hNGAL lipocalin mutein (protein)
chain: QDSTSDLIPAPPLSKVPLQQNFQDNQFQGKWYVVGVAGNAILRTDKQPAKMFATIYELKEDKSYDVTSVRFEAKSCKYTIKTFVPGSQPGEFTAGNIKSAPGQTSTLVRVVSTNYNQHAMVFFKHVSQNREIFVITLYGRTKELTSELKENFIRFSKSLGLPENHIVFPVPIDQCIDG
modifications: lipocalin mutein
With B1, in data set [1], the “ONSET MELTING” value worked out at 58 °C. This molecule also registered a TM in data set [1] (major transition) of 72 °C. Besides, the “human CTGF koff” value with human CTGF [2] was 1.41e-05 s⁻¹. Besides, in the data set with human CTGF [3], the “human CTGF kon” value is 157000 M⁻¹ s⁻¹. For the same molecule, in the data set on cynomolgus CTGF, the “cynomolgus CTGF koff” value stood at 2.63e-05 s⁻¹ and the “cynomolgus CTGF kon” value turned out to be 195000 M⁻¹ s⁻¹. In addition, in the data set with Murine CTGF, the “Murine CTGF koff” value came to 1.16e-05 s⁻¹ and the “Murine CTGF kon” value turned out to be 299000 M⁻¹ s⁻¹. Also, in the data set with Rat CTGF, the “Rat CTGF koff” value came to 3.51e-05 s⁻¹ and the “Rat CTGF kon” value came to 138000 M⁻¹ s⁻¹. For the same molecule, the “Reduction of Ashcroft score vs mean of vehicle-treated animals” value in data set [4] (mutein 5 mg/kg daily local lung delivery day 0-13) worked out at 14.1%. In addition, in data set [4] (setting [5]), the “Effect on Ashcroft score” value is “significantly decreased the Ashcroft score” and the “Reduction of Col1a1 positive lung surface area vs mean of vehicle controls” value came out at 25.2%.
